Assay [1] addresses T1, hROR1-ECD (Homo sapiens, UniProt Q01973). The assay can be described thus: SPR. In general terms: Surface plasmon resonance follows binding to a sensor surface in real time, without labels.
Assay [2] concerns the target T2, Fc-hROR1 (Homo sapiens, UniProt Q01973). The assay can be described thus: SPR.
The target of assay [3] is T1, hROR1-ECD. The assay can be described thus: SPR. The source holds these as a separate data set.
The target of assay [4] is T2, Fc-hROR1. Description: SPR. This is another data set of the same source.
The target in assay [5] is Fc-mROR1 (Mus musculus, UniProt Q9Z139). The assay can be described thus: ELISA. For orientation: In an ELISA, binding on a coated surface is turned into a signal by an enzyme label.
Chain of Fc-mROR1 (Q9Z139 30-406): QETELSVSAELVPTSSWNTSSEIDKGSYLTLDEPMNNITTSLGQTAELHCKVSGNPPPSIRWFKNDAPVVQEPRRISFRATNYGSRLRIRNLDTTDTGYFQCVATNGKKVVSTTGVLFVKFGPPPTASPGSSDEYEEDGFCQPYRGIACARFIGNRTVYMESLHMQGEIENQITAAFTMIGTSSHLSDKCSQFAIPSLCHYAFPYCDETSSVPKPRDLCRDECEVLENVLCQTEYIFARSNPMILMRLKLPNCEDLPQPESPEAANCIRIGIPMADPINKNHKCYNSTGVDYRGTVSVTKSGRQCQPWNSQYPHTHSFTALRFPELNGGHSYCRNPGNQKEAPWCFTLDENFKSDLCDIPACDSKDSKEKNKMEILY
In assay [6] the target is Fc-hROR1Kr (Homo sapiens, UniProt Q01973). The assay can be described thus: ELISA.
The target of assay [7] is Fc-hROR1Fz+Kr (Homo sapiens, UniProt Q01973). Description: ELISA.
In assay [8] the target is Fc-hROR1Fz (Homo sapiens, UniProt Q01973). Description: ELISA.
Chain of Fc-hROR1Fz (Q01973 165-299): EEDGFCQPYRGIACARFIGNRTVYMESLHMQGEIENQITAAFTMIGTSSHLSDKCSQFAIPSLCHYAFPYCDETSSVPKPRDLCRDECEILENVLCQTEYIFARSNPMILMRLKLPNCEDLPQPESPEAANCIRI

Usually Kd stands for the constant that tells how readily two partners part at equilibrium. Lower therefore signals tighter binding. What is called koff is the first-order rate constant of dissociation. A high value points to fast dissociation. A word on the kon: it is a measure of how fast the partners come together.

Read-outs that look alike come from different tables or passages of the source.

T1 sequence (Q01973 30-406): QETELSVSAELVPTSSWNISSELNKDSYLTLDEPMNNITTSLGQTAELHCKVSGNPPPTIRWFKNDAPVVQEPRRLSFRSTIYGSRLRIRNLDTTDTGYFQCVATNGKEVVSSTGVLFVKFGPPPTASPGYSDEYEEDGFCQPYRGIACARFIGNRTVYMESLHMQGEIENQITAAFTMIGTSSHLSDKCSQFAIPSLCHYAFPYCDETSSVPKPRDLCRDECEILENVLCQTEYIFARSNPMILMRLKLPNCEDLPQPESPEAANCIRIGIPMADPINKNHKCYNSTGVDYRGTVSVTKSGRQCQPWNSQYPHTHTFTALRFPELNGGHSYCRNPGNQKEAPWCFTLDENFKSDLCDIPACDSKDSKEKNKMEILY
T2 sequence (Q01973 30-406): as above

B1: mouse anti-human ROR1 monoclonal antibody 2A2-IgG (antibody, V domains shown)
VH: QVQLQQSGAELVRPGASVTLSCKASGYTFSDYEMHWVIQTPVHGLEWIGAIDPETGGTAYNQKFKGKAILTADKSSSTAYMELRSLTSEDSAVYYCTGYYDYDSFTYWGQGTLVTVSA
VL: DIVMTQSQKIMSTTVGDRVSITCKASQNVDAAVAWYQQKPGQSPKLLIYSASNRYTGVPDRFTGSGSGTDFTLTISNMQSEDLADYFCQQYDIYPYTFGGGTKLEIK
B1: the Kd in assay [1] worked out at 32.6 nM; in assay [2] it was 0.79 nM; in assay [3], 0.12 nM; in assay [4], 0.42 nM. Also, the koff in assay [1] is 0.00777 s⁻¹; in assay [2] it was 0.00018 s⁻¹; in assay [3], 0.00018 s⁻¹; in assay [4], 0.00034 s⁻¹. For the same molecule, the kon in assay [1] turned out to be 240000 M⁻¹ s⁻¹; in assay [2] it was 230000 M⁻¹ s⁻¹; in assay [3], 1.52e+06 M⁻¹ s⁻¹; in assay [4], 810000 M⁻¹ s⁻¹. Further, the binding result in assay [5] is “binds”; in assay [6], “no binding”; in assay [7] it was “no binding”; in assay [8], “no binding”.
